Results taken from the DeepSol protein solubility set.

Assay: soluble on expression in E. coli; label from the status in PepcDB or PDB records

Sequence | soluble on expression in E. coli
MSLTVNNVGLRYGDKKLFEDVSIKFLPGNCYGLIGANGAGKSTFLKVLSGELDSQSGNVHIGSGERLAVLRQDHFQYDNELVLNTVIMGHERLYKIMDEKNAIYMKEDFSDEDGIRAAELEGEFAELDGWEAESDAAVLLNGLGIPTDLHGKLMKDLTGGEKVKVLLAQALFGKPDILLLDEPTNHLDIRAIHWLEEFLINFDNTVIVVSHDRHFLNKVCTHIADLDFSKIKLYVGNYDFWYESSQLAQTMMGDRNKKKEEKMKELQDFIARFSANASKSKQATSRKKMLEKITLEDIQPSSRRYPFIQFKPDREVGNDLLTVTNLSKTIDGVKILDNLSFSINRNDKVALVGDDEVAKTVLFQILAGEMEPDEGSYKWGITTSQSYFPKDNSEFFEENDMSLVEWLRQFSPEDDSEAFLRGFLGRMLFSGDEVLKKVRVLSGGEKVRCMLSKMMLSGSNVLLLDEPTNHLDLESITALNNGLEAFKGAMIFASHDHQLLQTIATRIINLSKDQFYNKEISYDEYLKEVMNVAEGHHHHHH | soluble
MKTVLVDWNLIPYAEAWQRQTEWFDTLVRAKAQGEAYENRIIMCEHPHVYTLGRSGKENNMLLNDDQLKAIQATLFHIDRGGDITYHGPGQLVCYPILNLEEFHLGLKEYVHLLEEAVIRVCASYGIEAGRLEKATGVWLEGSTPRARKICAIGVRSSHYVTMHGLALNVNTDLRYFSYIHPCGFIDKGVTSLRQELKHEVPMDEVKQRLECELGRLLNEKKQQIAQ | not soluble
GPGSMYRSDTDERKRRQSVSWRKRASFIELDCGEDSFFVANNYKVIGVADGVGGWRAEGVDPSLFANALMENAKLFAETHRGERDPEKILDAAYTKVVKDGIVKVGSSTACVATLRKDDDGSHKLDVANLGDSGVMVVRNRSMYFRAHEKVHGFNAPFQLAVLPQPMVGRAFSDRVQDCVRESVPVQEGDVIVMGTDGLFDNRFNSQLAADAGWIGKVEESPIAKIPLVGFFLSGILDEKIDYVDPYRVAQRIITDAYKTSVNPDTNSPWASMLRQFGQTDAKGGKPDDITVLLSRVSTREELSNSTSW | not soluble
MGSDKIHHHHHHMLFLQNTPLPEIIDGLPNISGWEAEVLSVVNNDAPVFLPTTNIKLEDVNAVFAIALHMHQPTIPAGDGGELISNLQYMFAHPHEGDNHNAGPFAYCYSRMGEFIPELVSQGCNPRVMLDYSGNLLWGLRQMGRNDVLDSLKGVTGDRTYQPHVEWLGTMWGHAVVPSTPIKDIKLHILAWQQHFAAIFGWEALARVKGFSPPEMHLPNHPDTLFQFVKALKECGYRWLLVQEHTVETIDGQSLTNRHLPHRLLARNSQGETISIIALIKTQGSDTKLVAQMQPYYEAKTLSKRRLGNVEIPPIVSQIGDGENGGVMMNEFPSAFKQAWWDMVNHGGGKSGVVGVCGTEYLELIEAAGVKPEDFPSCQPVGQHQIWQRVAPDNNQPEAVENAIQEIKQINPNFHLEGASWTNHISWVRGYENVLSPMYELSSLFHQKFDNLLLNNSYSSITKQPDYRQALLYNLLLQTSCFRYWGQGAWTDYAREIYQRGKSLLTS | not soluble
MARLSQEIILDMAEQIIYEKGMEKTTLYDIAGNLNVTHAALYKHYRNKEDLFQKLALRWLEETSREIFAWTKEKDASPDDALHDWLWLLADTKKTLYKTDRKMFLLYTDYIEQKEELVKNHIEHLAQKAEEVSGRVNQGDAIITAFIYFHNPYFASRWEKAGYVELFERVWQVVR | not soluble
MKTHQYELIDEKVFEHEFDNGLKLFIIPKPGFQKTYVTYTTQFGSLDNHFKPIGSQQFVKVPDGVAHFLEHKLFEKEDEDLFTAFAEENAQANAFTSFDRTSYLFSATSNIESNIKRLLNMVETPYFTEETVNKEKGIIAEEIKMYQEQPGYKLMFNTLRAMYSKHPIRVDIAGSVESIYEITKDDLYLCYETFYHPSNMVLFVVGDVSPQSIIKLVEKHENQRNKTYQPRIERAQIDEPREINQRFVSEKMKLQSPRLMLGFKNEPLDESATKFVQRDLEMTFFYELVFGEETEFYQQLLNKDLIDETFGYQFVLEPSYSFSIITSATQQPDLFKQLIMDELRKYKGNLKDQEAFDLLKKQFIGEFISSLNSPEYIANQYAKLYFEGVSVFDMLDIVENITLESVNETSELFLNFDQLVDSRLEMENR | soluble
MGSDKIHHHHHHMFKIVYPNAKDFFSFINSITNVTDSIILNFTEDGIFSRHLTEDKVLMAIMRIPKDVLSEYSIDSPTSVKLDVSSVKKILSKASSKKATIELTETDSGLKIIIRDEKSGAKSTIYIKAEKGQVEQLTEPKVNLAVNFTTDESVLNVIAADVTLVGEEMRISTEEDKIKIEAGEEGKRYVAFLMKDKPLKELSIDTSASSSYSAEMFKDAVKGLRGFSAPTMVSFGENLPMKIDVEAVSGGHMIFWIAPRL | not soluble
MSLKLLAFDTSSTALSVAILEDDRLLADASLTIKKNHSISLMPTIDFLMKSVNLSPQDLDRIVVAEGPGSYTGLRVAVATAKTLAYTLTIDLVGVSSLAALALNSHHEGFIVPIMDARRNHVYVGFYENGRAAKADQYASLNAVLEQLKGRKQVTFVGEVTAFRQEINQTFPEAKVLEVLPSAFKIGQVGQKLTPVDVHAFVPKYLKKVEAEENWLKTHEDSGLSYVKRVEGHHHHHH | not soluble
MHRVEETRRIAPEEGNPVLISQIKDASGNITVAVREEGGQARAVKGAASVYALAMEAANGGKSLADVVSAHGLGDAVDLDKAYAEGRFLPPITHPDPAHLHLTGTGLTHLGSAATRDSMHKKTTEAAEESLTDSMKMFRMGLENGKPKAGEKGVQPEWFYKGNGHVAAAPGAALTSPSFALDGGEEPEMAGIYVISDKGEAVRIGFAVSNEFSDHVTERVNYLYLAHSKLRPASFGPEIRVGAAPSDIRGTSRIRRGDKVIFEKPFVSGEDNMSHTFANLEYHHFKYGLFRAPGDVHVHMFGTATLSFAEGIKPEAGDVFEIEAAGFGLPLKNPLAVDSEEEIVVRQI | not soluble
MNDSAPRRVRVRAPELIGKGGWLNTGDKQYTLADLRGRIVVLDFWTFCCINCLHVLDELRELEEKHRDTVVIIGVHSPKFVHEAEHQAVVDAVERYGVEHPVLDDPELATWKQYAVRAWPTLVVIDPEGYVVAQHAGEGHAHAIAALVAELEAEHEAKGTLRRGDGPYVAPEPEPTVLRFPGKALLLPSGNFLVSDTTRHQLVELAADGESVVRRIGSGIRGFADGPADAASFSEPQGMTLLDEDVVVVADTVNHALRRLDLATGEVTTLAGTGRQWWQGSPASGPAREVDLSSPWDVAVFGGRVWIAMAGGAPAVDVRPGGGDGRGRGGHDERGAGRRTGLEHHHHHH | soluble
INYEKVGLKVGLEIHQQLNTKRKLFCHCPTILRDDEPDGEIVRVLRPSLSEMGEVDRAALIEARKGKKFIYQFYNDTTCLVELDEEPPHPPSEEALRIALEVALLMNMNVVDVAYTMRKIVIDGSNTSGFQRTIFLARDGYIETSEGKVGITSLCLEEDAARKIEDRGDAVVYNLDRLGIPLVEISTAPDIKTPKMAKEAARRIGEILRATGKVKRGLGTIRQDINISIKDGARIEVKGVQDLDLIEKVVENEVIRQLNLL | not soluble
MSLIYFETERLIARDYLERDYLPFSQMNADEEVMKYFPARLTQVESNALLDRNQKELTSLGYGLFAIEVKSTNEFIGFTGLHEATFEAEFTPCIEIGWRLKRSAWNQGFATEAALGVLAFAKGITAINEIYSFTATCNKPSEKVMRKIHLTKIADFEHPALINGNPLKPHVLYKAEGHHHHHH | not soluble
TPHLVNLNEDPLMSECLLYYIKDGITRVGQADAERRQDIVLSGAHIKEEHCIFRSERSNSGEVIVTLEPCERSETYVNGKRVSQPVQLRSGNRIIMGKNHVFRFNHPEQARAEREKT | soluble
MGSDKIHHHHHHMEKIGELINHFRENKGMSQAELSEGILSKAQLSKFERDLTKISVDKFLALLERLHVTFTEFGNALAIQERLYEQAILEDITKAVINNNKDQAQLVKERAEQHLKKHHGKYNQLTLIMVKAMICDMEKGTLPKADTKVLADYLFSVDGWTHFELLLFGNTMSALSLVTVNQLARELAAQINEAWAIHQNFQLTINLLYNVVILNLSAKDLTTARLFLRVMKHSHVEDSMMAERYLIALADAFCDYCGEPTVEHENNVKRMIEIQKEIGSTNFFVAFNNQAKMFISETKISSNDSAGNV | not soluble
MEKSIKIGFIGLGAMGKPMAINLLKEGVTVYAFDLMEANVAAVVAQGAQACENNQKVAAASDIIFTSLPNAGIVETVMNGPGGVLSACKAGTVIVDMSSVSPSSTLKMAKVAAEKGIDYVDAPVSGGTKGAEAGTLTIMVGASEAVFEKIQPVLSVIGKDIYHVGDTGAGDAVKIVNNLLLGCNMASLAEALVLGVKCGLKPETMQEIIGKSSGRSYAMEAKMEKFIMSGDFAGGFAMDLQHKDLGLALEAGKEGNVPLPMTAMATQIFEGGRAMGLGREDMSAVIKVWEQMTGVSVSGGQ | soluble
MSLKSHVRSFKTYIRDEIIKKGGWVNAHAHADRAFTMTPEKIGIYHSSNLQQKWDLVDEVKRTSSVDDYYARFCQSIELMISQGVTAFGTFVDIDPICEDRAIIAAHKAREVYKHDIILKFANQTLKGVIEPTARKWFDIGAEMVDMIGGLPYRDELDYGRGLEAMDILLDKAKSLGIMCHVHVDQFNNPSEKETEQLCDKTIEHGMEGRVVGIHGISIGSHSKEYRYKLYEKMRKAKMMMIACPMAWIDSNRKEDLMPFHNALTPADEMIPEGITVALGTDNICDYMVPLCEGDLWQELSLLAAGCRFPHLDEMVNIASINGRKVLGLELIEGHHHHHH | soluble
MDGDQVKGILKSGNNSAQFSLKAAKFDEVNILATFHPAGKDYGHMIIDEPKTPFVFEEDLPKELDTNALIEKLRHTSKSEMPAFGIEGDSEESSADEDFPESVEEKVRRMEFERRRKVHYKEFYSVPLARRLIADEFAELTSSEFNIHCEGGMESCEACSENNQLDGEASNLTQTKYSYSESQSEYRISDHSEPEPGFSPSHHCYQKLKAELFSKAEPEELASLTHLHRMPSVNDDEPSREPRVPYPSVVPTQTQNLHEHKSSLKITSEKPTPARICKSNPDNRPGTSKKETRLEHHHHHH | not soluble
MSLEKLSHGLVTSRNMIRYKSSQLPERVLQFGEGNFLRGFIDWMIQQMNKQNVFNGRVVAIQPTPHGKVVPKLQEQDSLYTVWLRGIADGETVDHHEVITSISRGLNPYTNWQDVLEVAASPDISVVFSNTTEAGLTYLEEGYDKEKAPLSFPGKLAACLWHRYETLGWGEGSGLVIIPCELVEQNGKVLKELVCRYAKAWNFPQEFFTWLERENEFCHTLVDRIVPGFPSDTADECFERLGYEDILLTVAEPYHLFIIEGSERVRKLLPFNEAGLHVRWNHLEKHRNMKVRVLNGTHTFMFALSYLSGVDTVGEAMADEQLCSFIRKGLFEEIIPCVDAPEQEVTAFAETVLERFENPFLQHRLTDIGLNAVNKFRTRLMPTFNDYVAQTGEAPTYLLFSLAALINYYRGVEEDGPFLIGRRREDSYLIRDDLEVIEAFKVGWQQVNTGKLSLAQLCEDLLSKRELWGVDLSMERKVVDKVAESLQIIVEKGMRQAISGVLNQIGGNNHVHKEGHHHHHH | soluble
MYSLLTLLFVLFFSGSTLLVQCGGKKKGATSAEGKSSTMGPAPGGAPAAASAQGEPEEKE | not soluble
MGHHHHHHKVTLPDLKWDFGALEPYISGQINELHYTKHHQTYVNGFNTAVDQFQELSDLLAKEPSPANARKMIAIQQNIKFHGGGFTNHCLFWENLAPESQGGGEPPTGALAKAIDEQFGSLDELIKLTNTKLAGVQGSGWAFIVKNLSNGGKLDVVQTYNQDTVTGPLVPLVAIDAWEHAYYLQYQNKKADYFKAIWNVVNWKEASRRFDAGKI | soluble
